Source: the DeepSol protein solubility set

Assay: soluble on expression in E. coli; label from the status in PepcDB or PDB records

In the case of “MKRIGVLTSGGDSPGMNAAIRSVVRKAIYHGVEVYGVYHGYAGLIAGNIKKLEVGDVGDIIHRGGTILYTARCPEFKTEEGQKKGIEQLKKHGIEGLVVIGGDGSYQGAKKLTEHGFPCVGVPGTIDNDIPGTDFTIGFDTALNTVIDAIDKIRDTATSHERTWVIEVMGRHAGDIALYSGLAGGAETILIPEADYDMNDVIARLKRGHERGKKHSIIIVAEGVGSGVDFGRQIQEATGFETRVTVLGHVQRGGSPTAFDRVLASRLGARAVELLLEGKGGRCVGIQNNQLVDHDIAEALANKHTIDQRMYALSKELSI”, the “soluble on expression in E. coli” value was “soluble”.

With “MSLEEPRGINYVELSTDDLGTLTRQMHQLGFQFIGYHRSKPHVQLWLRGQARIIVSEVTEEAGTTSAPVNGTFLRGIGFEVTDSQSAMDRAALLHAEEVPRDQAHDDEVLRGVFAPDGSEVFFHQFDAATPAWIKEFGHDHDEQVSHIDHVNLAQPSNHYDEAVLFYTSLLALHAQSSQDVPSPSGLVRSQVMSSTDGSVRMPLNVSPQPNAEAVAGRGIGSVVEAYPEHVAVACEDIFQAAATALSRGLDFLPVPQNYYEDLDSRFDLDLEFLQRLQENHVLYDRDEHGEFLHFYTSTIGSVFFEMIERRGDYLGFGAPDAPVRLAAQHRKNSQREGHHHHHH” the “soluble on expression in E. coli” value was “not soluble”.

In the case of “MGSDKIHHHHHHMLQIKRKINATQSLMKITRAMEMVARAKVRKIESEYQKFKPFYDEVKRLWALVPAESLDPIFFEEGNRDLIVVITSDMGLCGSFNSEILREAERVISESRDPHLILVGLKAINHFKDGKVLKMYDRFYEIPDFRNGSTIVEDILNFLDGKPARVRVIFSRFKNVLIQRPEVHELLPIKKEEKKREDFEYEPRLEQIAPLIFHYYLSATLMELMFQTKIGEYYARQNAMKNATDNAQEVIRELTLAYNKARQASITQELIEIVTGAEALKEIEK”, the “soluble on expression in E. coli” value was “not soluble”.

For “MSLNIPLSGIIPPLVTPLLDDDVLDVEGLQRLIEHLIAGGVHALFVLGTTGESQSLSYKLRMEMIKNTCRIAKGRLPVLVCISDTSIVESVNLACLAADHGADAVVSAPPYYFATGQPELIEFYEHLLPQLPLPLFLYNMPTHTKVNFAPATIQRIAENPGVIGFKDSSANTVYFQSVMYAMKDNPDFSMLVGPEEIMAESVLLGAHGGVNGGANMFPELYVSLYNAAKNADMEEVRRLQEKVMQISATIYTVGQHGSSYLKGLKCALSLLGICSDYVAAPFHKFEQRERGKIWKALQNLGVDEGHHHHHH”, the “soluble on expression in E. coli” value was “soluble”.

In the case of “SGSSEDQAYRLLNDYANGFMVSQVLFAACELGVFDLLAEAPGPLDVAAVAAGVRASAHGTELLLDICVSLKLLKVETRGGKAFYRNTELSSDYLTTVSPTSQCSMLKYMGRTSYRCWGHLADAVREGRNQYLETFGVPAEELFTAIYRSEGERLQFMQALQEVWSVNGRSVLTAFDLSVFPLMCDLGGDFFKDPLPEADLYILARVLHDWADGKCSHLLERIYHTCKPGGGILVIESLLDEDRRGPLLTQLYSLNMLVQTEGQERTPTHYHMLLSSAGFRDFQFKKTGAIYDAILARK”, the “soluble on expression in E. coli” value was “soluble”.

In the case of “MSLNPLKCAVIGVGYLGKFHAEKYAALPGCELVAVVDADPVTAAEIGDRLGVRGLTDHRALLGKVDAVSVVVPTSLHHRVARDFLEAGAHVLVEKPITVTVEEADELIRIAKEKQRVLMVGHLERFNAAVLGLDLDHHKPLFIESHRLAPFKPRANDVSVVLDLMIHDIDIILDMVDSEVERIDAKGVAVLTGDIDIANARLQFKSGCVANVTASRVSLKVERKMRMFMPNAYVSVDFQNRVLARHRKGEGEMFPGVPEILSEESVFENGDALMEEIRHFLDCIREHREPLVSGAAGRRALATAIEITNLLKVQESRSEGHHHHHH”, the “soluble on expression in E. coli” value was “soluble”.

For “MAQGEKITVSNGVLNVPNNPIIPFIEGDGTGPDIWNAASKVLEAAVEKAYKGEKKITWKEVYAGEKAYNKTGEWLPAETLDVIREYFIAIKGPLTTPVGGGIRSLNVALRQELDLFVCLRPVRYFTGVPSPVKRPEDTDMVIFRENTEDIYAGIEYAKGSEEVQKLISFLQNELNVNKIRFPETSGIGIKPVSEEGTSRLVRAAIDYAIEHGRKSVTLVHKGNIMKFTEGAFKNWGYELAEKEYGDKVFTWAQYDRIAEEQGKDAANKAQSEAEAAGKIIIKDSIADIFLQQILTRPNEFDVVATMNLNGDYISDALAAQVGGIGIAPGANINYETGHAIFEATHGTAPKYAGLDKVNPSSVILSGVLLLEHLGWNEAADLVIKSMEKTIASKVVTYDFARLMDGATEVKCSEFGEELIKNMD”, the “soluble on expression in E. coli” value was “soluble”.

For “MGSDKIHHHHHHMTQNVIEMKEITKKFGDFVANDHINLTVEKGEIHALLGENGAGKSTLMNMLAGLLEPTDGQIFINGQPVTIDSPSKSSQLGIGMVHQHFMLVEAFTVAENIVLGNETTQNGVLDIKTAAKEIKELSEKYGLSVNPNAKISDISVGAQQRVEILKTLYRGADILIFDEPTAVLTPSEIKELMTIMKSLVKEGKSIILITHKLDEIRAVADKVTVIRRGKSIETVPVAGASSQQLAEMMVGRSVSFRTEKKEANPTDIILSVKDLVVEENRGGVLAVKNLSLDVRAGEIVGIAGIDGNGQSELIQAITGLRKVTSGQIVIKGKDVTKFSSRQITELSVGHVPEDRHRDGLVLDMTMAENLALQTYYKEPLSHKGILNFAKIKEYARQLMTEFDVRGAGEHVLARGFSGGNQQKAIIAREVDRDPDLLIVSQPTRGLDVGAIEYIHKRLIEERDKGKAVLVVSFELDEILNLSDRIAVIHDGKIQGIVKPDQTNKQELGILMAGGKIEKEERDV”, the “soluble on expression in E. coli” value was “not soluble”.

In the case of “MSLANYIKDIREKVGHMPLIMVGVGAAYIKEEKVLLQERADTGGWGLPGGYMEYGESIEQTLKREFKEDAGLEIIDYKFLKNFDREFFKYPNGDQTQVLTPFYLVTKVKEGKPQFDPHETSRVDFFDFNDLPEIHFASHKRILTYLQDILEGHHHHHH”, the “soluble on expression in E. coli” value was “not soluble”.

With “MSIESLNAFSMDFFSLKGKTAIVTGGNSGLGQAFAMALAKAGANIFIPSFVKDNGETKEMIEKQGVEVDFMQVGITAEGAPQKIIAACERFGTVDILVNNAGICKLNKVLDFGRADWDPMIDVNLTAAFELSYEAAKIMIPQKSGKIINICSLFSYLGGQWSPAYSATKHALAGFTKAYCDELGQYNIQVNGIAPGYYATDITLATRSNPETNQRVLDHIPANRWGDTQDLMGAAVFLASPASNYVNGHLLVVDGGYLVR” the “soluble on expression in E. coli” value was “soluble”.

In the case of “SPQRKVANNKQNIEYNDDNHVHHMHSHNPPIDCAILLPSKPRFIFQDVTVFNFNVSGNPSDLNTPVVQFNLSFRNPNANIRIYYDTLDVYAFYGNGSQQIIIPTPMPSTYQGHKEDSVWSPYIPVVPYNALYLDDQHHSRDGNMLMLHLDGRISWLLLGN”, the “soluble on expression in E. coli” value was “soluble”.

In the case of “MGSDKIHHHHHHMRLITFDASYDPIAEESKTVRVYVFEPEKIERNLIFLHGIGNGNIPYLLWFGEKFREYNIKTWFLILPYHEKRAPENWSGGEPFYHSSPSFCVKRFDEAVQDVIDLVDVVKRDNDKPISLMGFSFGGMITTIALAREKRIEKGVICCSGGDWRWINWYSPYTERLRELYRKNGNEYGCRSEKDCIKNRRNAPEIIKSFNSIEDIRKKPPVGCYFYDPASFAPFVDQKVLFFWALFDHVIPYQSYACLHKLLKNKKTVYLPSGHKGSYFFRRYIAKRVVRFLIDDE”, the “soluble on expression in E. coli” value was “not soluble”.

In the case of “MNTTPFPALSAETLLAVNTVGQWLAQNDFSGEQPYSSDCVVLAGNAVIPTIDAACRIAKAQGVPLLISGGIGHSTPFLYAVIARHPRYHTIRTSGRAEAAILADIANQFWHIPAEKIWLEDRSTNCGENARFSCALIRQAKENINTAIVVQDPTMQRRTIAAFRRVTNDDTDAPRWLSFPGFVPVLRHLNDGTRFANVEEGIWTVERYLSLIAGELPRLRDDETGYGPRGKDFIIHVDIPRDIENAWQVLQADTTLRSALGQRALRLEHHHHHH”, the “soluble on expression in E. coli” value was “soluble”.

With “MTPWLGLIVLLGSWSLGDWGAEACTCSPSHPQDAFCNSDIVIRAKVVGKKLVKEGPFGTLVYTIKQMKMYRGFTKMPHVQYIHTEASESLCGLKLEVNKYQYLLTGRVYDGKMYTGLCNFVERWDQLTLSQRKGLNYRYHLGCNCKIKSCYYLPCFVTSKNECLWTDMLSNFGYPGYQSKHYACIRQKGGYCSWYRGWAPPDKSIINATDP” the “soluble on expression in E. coli” value was “not soluble”.

For “MEVDTSSSSSSEDECDPSSPSTAYIHSASVRLSVGTEEAARTVADVIKIDKEPRRSGARREVCSEGEFVVIKIESKDPKSLSKSIANAVDMIDLSVKTIKLCENLGKSKENGLKRKLSNGSQA”, the “soluble on expression in E. coli” value was “not soluble”.

In the case of “MGSDKIHHHHHHINVYFRGPRTHRMPQWVRVVFLQFLPKLVCMKRPKSASERSAVRSGMAQLPGVGQFTLSPSAHHPLCPSADDRTTTIRNTASNETSAYYPLSTDALRAIDAIEYITEHLKRDEQHKSFRDDWKYVAMIIDRL”, the “soluble on expression in E. coli” value was “not soluble”.

For “MGSDKIHHHHHHVFIGIETTDPEGLKETGKVQNLREDPLTAVRRIYAHGIDVLGGFIIGFDHDTMATFEHQYRFITDAGIQSAMIGLLMALPRTPLHERMQREGRLLPLDGHADNTCLTTNIAPRSMNIDAMVAAYQELYRRLLTGPEIGRRIRNKMKYLQAPVYGSGYSMGQRAGILARLMVRGIGAGGLSTLVAFLRSFPFLTPSRIPMVISDWIIGLSMKAFAETSLLGRSTQGLNNAATGISTGLRDP”, the “soluble on expression in E. coli” value was “not soluble”.

In the case of “MLDAFAKVVAQADARGEFLTNAQFDALSNLVKEGNKRLDAVNRITSNASTIVANAARALFAEQPQLIQPGGNAYTNRRMAACLRDMEIILRYVTYAILAGDSSVLDDRCLNGLRETYQALGTPGSSVAVAIQKMKDAAIAIANDPNGITPGDCSALMSEIAGYFDRAAAAVA”, the “soluble on expression in E. coli” value was “soluble”.

In the case of “MEFELEQHTPIIHFQARDAGATLRASEVKPKLDKFILTQIGKRFVKKTASTTEKNFIERGIEYFQNKDEEARRVYEEEKKKGNKGAKLELCLIPGQEGALNYKLSFKLSPDAKVQYFLPMSSNPKEIDKLKSLAQEKLGVQEVEMLPLTSYFANEDKAKSEPNIKHGDTPDQIKNKKRIFEENWQKVQLATFVNTPVEGVIRFQNAGLREEVNNLITNFFMLHNFGARQSKGFGSFIISLRDGKEEEDYFDTGCACYGYSFYIPAKTLEEALRKINYFYRSLRSGFNEYRGKNEIFYAKSGMHFYATKHNFEWDKKSIKGMLFDRDKDLEGKMKKEELFAFRDLLGLSSNERWQSYKTTITKECRNKKGEKFDRIKSPIQFKPICYSKYDYIVFFDLFPEKSGIPQLKGGKVVVKSSRHKGAVLELKIQEDIDLYNVFNEIFSELNFESQVGEYDSLTDAKEIFETMKDIYEQLNKNCHE”, the “soluble on expression in E. coli” value was “not soluble”.

In the case of “MDSKAIAERIKKLQAQQEHVRIGGKGTPRRKKKVIHKTAAADDKKLQSNLKKLSVTNIPGIEEVNMIKDDGTVIHFNNPKVQTSVPANTFSVTGSADNKQITEMLPGILNQLGPESLTHLKKLANNVTKLGPDGKGEDEDVPELVGDFDAASKNETKADEQ”, the “soluble on expression in E. coli” value was “soluble”.

For “AIAERSFVWLSCLDSDSCNLTFRLGEVESHACSPSLLWNLLTQYLPPGAGHILRTYNFPVLSCVSSCHLIGGKMPEN”, the “soluble on expression in E. coli” value was “soluble”.

In the case of “MDEMIFDPTMSKKKKKKKKPFMLDEEGDAQTEETQPSETKEVEPEPTEEKDVDADEEDSRKKDASDDLDDLNFFNQKKKKKKTKKIFDIDEAEEAIKDVKIESDAQEPAEPEDDLDIMLGNKKKKKKNVKFPEEDEILEKDEALEDEDSKKDDGISFSSQTAWAGSERDYTYEELLNRVFNIMREKNPDMVAGEKRKFVMKPPQVVRVGTKKTSFVNFTDICKLLHRQPKHLLAFLLAELGTSGSIDGNNQLVIKGRFQQKQIENVLRRYIKEYVTCHTCRSPDTILQKDTRLYFLQCETCHSRCSVASIKTGFQAVTGKRAQLRAKAN”, the “soluble on expression in E. coli” value was “soluble”.
